Assay results published in patent US20260275319A1, “ARCHAEAL PEPTIDE RECOMBINASE – A NOVEL PEPTIDE LIGATING ENZYME” (MAX-PLANCK-GESELLSCHAFT ZUR FÖRDERUNG DER WISSENSCHAFTEN …, priority 2019, published 2026).

Tested on: (15)KDPGA(10F) and PGA(10) peptides
Assay: M. jannaschii Adriase peptide ligation rates with fluorescent peptides (SDS-PAGE/UV)
Assay type: biochemical
Procedure: To test this assumption, the Adriase reaction was performed with (X1)KDPGA(X2) peptides bearing a C-terminal fluorophore (SEQ ID NOs: 370-371 and 418; see also Table 6) and unmodified PGA(X3) synthetic peptides (SEQ ID NOs: 373-375; see Table 7) as model substrates. The recombination reaction is expected to result in the formation of a (X1)KDPGA(X3) fusion peptide, releasing the respective C-terminal peptides PGA(X2)(SEQ ID NOs: 414) with the C-terminal fluorescent label. The latter can be visualized in order to track the progress of the reaction.
For this purpose, ligations were performed and visualized as described above, except for the use of just 6 nM Adriase and the increasing concentrations of (15)KDPGA(10F) (SEQ ID NO: 418) and PGA(10)(SEQ ID NO: 374) peptides (2.5/5/10/20/40/80/160 µM of each peptide of the peptide pairs). The band intensity of the respectively fluorescently labeled PGA(10F)-peptide (see SEQ ID NO: 414), which is released by the ligation reaction was quantified using ImageJ v1.50i and subtracted from background signal in control reactions without PGA(10) peptide.
To determine how the reaction is influenced by recognition motif characteristics, ligation rates for other substrates were determined in the same manner, except for the use of 20 μM of the indicated substrates (see also Tables 6 and 7) and varying concentrations of Adriase (6/30/150/750 nM). […] In combination with the above experiments (FIGS. 9A and B), they provide the means to design substrates for efficient Adriase-mediated ligations.

B1: M. jannaschii Adriase: Methanocaldococcus jannaschii Adriase (MJ_0548) with C-terminal His6-tag (protein)
chain: SLIICYYGKNGAVIGGDRRQIFFRGSEENRKILEEKLYSGEIKSEEELYKLAEKLNIKIIIEDDREKVRKISDSVVCGEVRSLGIDAKRRRVYATKGKCAIVDILNDTVTNQTIKEGFGIVVLGNRFLKKKAEEELKRTAKLFPMMPIQQIEDAIKEIFEKLKWHPTVSKEYDIYSVNKYEKNFEEVIKKDIESLFKYREQLRKQLIDFGKVMSIVNKIVKNGEIGVIKDGKLHLYDDYIAIDKIDPNPKVFKVVDVEGNFKDGDIVVIENGDMKIKGTNEKVTTKYIIIHKGSHHHHHH
modifications: C-terminal His6-tag; M. jannaschii Adriase with C-terminal His-tag
6 nM Adriase, 85° C., equimolar substrates 2.5-160 μM, Michaelis-Menten model, single experiment
  maximum rate: ~ 1.4 ligations per enzyme and second
20 μM substrates, 6/30/150/750 nM Adriase, X1≥5 and X2=X3≥10
  ligation of (X1)KDPGA(X2) and PGA(X3) peptides: efficiently ligates
Each substrate, 6 nM Adriase, 85° C., Michaelis-Menten model
  substrate concentration at half maximal reaction speed: 23 µM
